From patent US10590192B2, “Midkine antibody” (Cellmid Limited, priority 2014, dated 2020)

T1: recombinant human MK (huMK) (Homo sapiens, UniProt P21741)
T1 sequence (P21741 21-143): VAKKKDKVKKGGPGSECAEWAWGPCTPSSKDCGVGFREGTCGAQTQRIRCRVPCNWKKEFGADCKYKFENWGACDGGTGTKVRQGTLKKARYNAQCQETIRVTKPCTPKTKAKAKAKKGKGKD

T2: murine MK (muMK) (Mus musculus, UniProt P12025)
T2 sequence (P12025 23-140): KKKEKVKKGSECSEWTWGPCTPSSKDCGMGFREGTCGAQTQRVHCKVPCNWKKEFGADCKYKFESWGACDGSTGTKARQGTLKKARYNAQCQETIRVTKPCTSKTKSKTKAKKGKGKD


Legend:
[1] = biological target: T1, recombinant human MK (huMK); test: ELISA binding of humanised anti-MK antibodies to huMK; conditions: ELISA, plates coated with 2 ug/mL huMK; read-out: Binding affinity for huMK, ELISA EC50
Protocol: (§1) The binding specificity and affinity of the humanised anti-MK antibodies to recombinant human MK (huMK) and murine MK (muMK) was assessed by ELISA. ELISA plates (Nunc Immuno MaxiSorp 96 well flat-bottom were coated with 100 uL of 2 ug/mL of either huMK or muMK in 2% BSA/PBS (overnight at room temperature). After washing, blocking (1 h at 37° C.), and washing again, the humanised anti-MK and chimeric antibodies described in Example 1 were analysed for binding to huMK or muMK at concentrations ranging between 3 μg/ml and 0.00004 μg/ml in 2% BSA/PBS (1 h at 37° C.). After washing, the binding of antibody was detected with goat anti-mouse IgG (Fab specific)-HRP conjugate (Sigma, Cat. No. A9917) and SigmaFast OPD substrate (Sigma, Cat. No. P9187). The reaction was stopped with 3 M HCl, absorbance read at 490 nm on a Dynex Technologies MRX TC II plate reader and the binding curves plotted. Binding affinity data for the humanised anti-MK antibodies to huMK and muMK are presented in Table 6 and Table 7 respectively, and in FIG. 3.
(§2) KD values for hIP14-H5L8, hIP14-H6L3 and hIP14-H6L8 was then compared with the KD values obtained for the corresponding murine IP14 precursor antibody and the chimeric antibody using the methods described in Example 2. […] Based on this finding, these candidate antibodies were produced to 100 mg scale to enable further testing in functional assays to determine biological function.

murine MK (muMK) = biological target: T2, murine MK (muMK); test: ELISA binding of humanised anti-MK antibodies to muMK; conditions: ELISA, plates coated with 2 ug/mL muMK; read-out: Binding affinity for muMK, ELISA EC50
Protocol: as §1, §2

Molecule | EC50 [1] | EC50 (murine MK (muMK))
IP14-H5L5: humanised IP14 antibody: VH SEQ ID NO: 6, VL SEQ ID NO: 14 (antibody, V domains shown, Variable region heavy chain humanised variant 5 (VH5); Variable region light chain humanised variant 5 (VL5)) VH: QVQLVQSGGGLVQPGGSLRLSCAASGQSFSSYWMNWVRQAPGQGLEWIGMIHPSDSETILNQKFKDKATLTVDISKNTAYLQMNSLRAEDTAVYYCSSWSAKRGDFWGQGTLVTVSS VL: EIVLTQSPATLSLSPGERATLSCRASQGVSSNLAWYQQKPGQAPRLLIYDASNRATGIPARFSGSGPGTDFTLTISSLEPEDFAVYYCQQSNSWPLTFGQGTKVEIKR | > 10 nM | > 10 nM
IP14-H2L5: humanised IP14 antibody: VH SEQ ID NO: 3, VL SEQ ID NO: 14 (antibody, V domains shown, Variable region heavy chain humanised variant 2 (VH2); Variable region light chain humanised variant 5 (VL5)) VH: QVQLVQSGAEVKKPGASVKVSCKASGQSFSSYWMNWVRQAPGQGLEWIGMIHPSDSETILNQKFKDKATLTVDISTSTAYMELSSLRSEDTAVYYCSSWSAKRGDFWGQGTLVTVSS VL: EIVLTQSPATLSLSPGERATLSCRASQGVSSNLAWYQQKPGQAPRLLIYDASNRATGIPARFSGSGPGTDFTLTISSLEPEDFAVYYCQQSNSWPLTFGQGTKVEIKR | > 10 nM | > 10 nM
IP14-H6L5: humanised IP14 antibody: VH SEQ ID NO: 7, VL SEQ ID NO: 14 (antibody, V domains shown, Variable region heavy chain humanised variant 6 (VH6); Variable region light chain humanised variant 5 (VL5)) VH: QVQLVQSGGGLVKPGHSLRLSCAASGQSFSSYWMNWVRQAPGKGLEWIGMIHPSDSETILNQKFKDKATLSVDIAKNSAYLQMNSLRAEDTAVYYCSSWSAKRGDFWGQGTLVTVSS VL: EIVLTQSPATLSLSPGERATLSCRASQGVSSNLAWYQQKPGQAPRLLIYDASNRATGIPARFSGSGPGTDFTLTISSLEPEDFAVYYCQQSNSWPLTFGQGTKVEIKR | > 10 nM | > 10 nM
IP14-H1L5: humanised IP14 antibody: VH SEQ ID NO: 2, VL SEQ ID NO: 14 (antibody, V domains shown, Variable region heavy chain humanised variant 1 (VH1); Variable region light chain humanised variant 5 (VL5)) VH: QVQLVQSGAEVKKPGHSVKVSCKASGQSFSSYWMNWVRQAPGQGLEWIGMIHPSDSETILNQKFKDKATLTVDISTSTAYMELSSPRSEDTAVYYCSSWSAKRGDFWGQGTLVTVSS VL: EIVLTQSPATLSLSPGERATLSCRASQGVSSNLAWYQQKPGQAPRLLIYDASNRATGIPARFSGSGPGTDFTLTISSLEPEDFAVYYCQQSNSWPLTFGQGTKVEIKR | > 10 nM | > 10 nM
IP14-H4L1: humanised IP14 antibody: VH SEQ ID NO: 5, VL SEQ ID NO: 10 (antibody, V domains shown, Variable region heavy chain humanised variant 4 (VH4); Variable region light chain humanised variant 1 (VL1)) VH: QVQLVQSGAEVKKPGASVKVSCKASGYTFTSYYMHWVRQAPGQGLEWMGIIHPSGGSTSYAQKFQGRVTMTRDTSTSTVYMELSSLRSEDTAVYYCARWSAKRGDFWGQGTLVTVSS VL: EIVLTQSPATLSLSPGERANLSCRASESISNNLHWYQQKPHQAPRLLIKYASQSISGIPARFSGSGPGTDFNLTISSVEPEDFAVYYCQQSNSWPLTFGGGTKLEIKR | > 10 nM | > 10 nM
IP14-H4L3: humanised IP14 antibody: VH SEQ ID NO: 5, VL SEQ ID NO: 12 (antibody, V domains shown, Variable region heavy chain humanised variant 4 (VH4); Variable region light chain humanised variant 3 (VL3)) VH: QVQLVQSGAEVKKPGASVKVSCKASGYTFTSYYMHWVRQAPGQGLEWMGIIHPSGGSTSYAQKFQGRVTMTRDTSTSTVYMELSSLRSEDTAVYYCARWSAKRGDFWGQGTLVTVSS VL: DIVLTQSPATLSLSPGERATLSCRASESISNNLHWYQQKPGQAPRLLIYYASQSISGIPARFSGSGPGTDFTLTISSLEPEDFAVYYCQQSNSWPLTFGGGTKLEIKR | > 10 nM | > 10 nM

Further lines, results first:

EC50 [1] | EC50 (murine MK (muMK)) | Molecule
> 10 nM |  | IP14-H3L4: humanised IP14 antibody: VH SEQ ID NO: 4, VL SEQ ID NO: 13 (antibody, V domains shown, Variable region heavy chain humanised variant 3 (VH3); Variable region light chain humanised variant 4 (VL4)) VH: QVQLVQSGAEVKKPGASVKVSCKASGQSFSSYWMNWVRQAPGQGLEWMGMIHPSDSETILNQKFKDKVTMTRDTSTSTVYMELSSLRSEDTAVYYCARWSAKRGDFWGQGTLVTVSS VL: EIVLTQSPDFQSVTPKEKVNITCRASESISNNLHWYQQKPHQSPKLLIYYASQSISGVPSRFSGSGSGTDFNLTINSVEAEDAATYYCQQSNSWPLTFGGGTKLEIKR
> 10 nM |  | IP14-H3L8: humanised IP14 antibody: VH SEQ ID NO: 4, VL SEQ ID NO: 17 (antibody, V domains shown, Variable region heavy chain humanised variant 3 (VH3); Variable region light chain humanised variant 8 (VL8)) VH: QVQLVQSGAEVKKPGASVKVSCKASGQSFSSYWMNWVRQAPGQGLEWMGMIHPSDSETILNQKFKDKVTMTRDTSTSTVYMELSSLRSEDTAVYYCARWSAKRGDFWGQGTLVTVSS VL: DIVLTQSPATLSLSPGERATLSCRASESISNNLHWYQQKPHQAPRLLIYYASQSISGVPARFSGSGSGTDFTLTISSVEPEDFAVYYCQQSNSWPLTFGQGTKVEIKR
> 10 nM |  | IP14-H3L7: humanised IP14 antibody: VH SEQ ID NO: 4, VL SEQ ID NO: 16 (antibody, V domains shown, Variable region heavy chain humanised variant 3 (VH3); Variable region light chain humanised variant 7 (VL7)) VH: QVQLVQSGAEVKKPGASVKVSCKASGQSFSSYWMNWVRQAPGQGLEWMGMIHPSDSETILNQKFKDKVTMTRDTSTSTVYMELSSLRSEDTAVYYCARWSAKRGDFWGQGTLVTVSS VL: DIVLTQSPATLSLSPGERANLSCRASESISNNLHWYQQKPHQAPRLLIYYASQSISGVPARFSGSGSGTDFNLTISSVEPEDFAVYYCQQSNSWPLTFGQGTKVEIKR
> 10 nM |  | IP14-H3L5: humanised IP14 antibody: VH SEQ ID NO: 4, VL SEQ ID NO: 14 (antibody, V domains shown, Variable region heavy chain humanised variant 3 (VH3); Variable region light chain humanised variant 5 (VL5)) VH: QVQLVQSGAEVKKPGASVKVSCKASGQSFSSYWMNWVRQAPGQGLEWMGMIHPSDSETILNQKFKDKVTMTRDTSTSTVYMELSSLRSEDTAVYYCARWSAKRGDFWGQGTLVTVSS VL: EIVLTQSPATLSLSPGERATLSCRASQGVSSNLAWYQQKPGQAPRLLIYDASNRATGIPARFSGSGPGTDFTLTISSLEPEDFAVYYCQQSNSWPLTFGQGTKVEIKR
> 10 nM | > 10 nM | IP14-H4L2: humanised IP14 antibody: VH SEQ ID NO: 5, VL SEQ ID NO: 11 (antibody, V domains shown, Variable region heavy chain humanised variant 4 (VH4); Variable region light chain humanised variant 2 (VL2)) VH: QVQLVQSGAEVKKPGASVKVSCKASGYTFTSYYMHWVRQAPGQGLEWMGIIHPSGGSTSYAQKFQGRVTMTRDTSTSTVYMELSSLRSEDTAVYYCARWSAKRGDFWGQGTLVTVSS VL: EIVLTQSPATLSLSPGERATLSCRASESISNNLHWYQQKPGQAPRLLIKYASQSISGIPARFSGSGPGTDFTLTISSVEPEDFAVYYCQQSNSWPLTFGGGTKLEIKR
